For test [1], the target named is HLA-B*15:17. Put plainly: IEDB peptide-MHC binding, purified MHC/direct/fluorescence; filed as Kd, often an IC50 or EC50 that approximates it; ≥ and ≤ were set here for values at or beyond the usual limits of such assays.
In test [2] the target is HLA-B*57:01. The description is as above.
The target in test [3] is HLA-B*58:01. Described as above.
Test [4] has as its target HLA-A*03:01. The test can be described thus: IEDB peptide-MHC binding, purified MHC/competitive/fluorescence; filed as Kd, often an IC50 or EC50 that approximates it; ≥ and ≤ were set here for values at or beyond the usual limits of such assays.
For test [5], the target named is HLA-A*02:01. Put plainly: IEDB peptide-MHC binding, purified MHC/direct/fluorescence; filed as Kd, often an IC50 or EC50 that approximates it; ≥ and ≤ were set here for values at or beyond the usual limits of such assays.
For test [6], the target named is HLA-A*02:11. Described as above.
Test [7] has as its target HLA-A*02:12. The test is described as above.
For test [8], the target named is HLA-A*02:19. Described as above.
In test [9] the target is HLA-A*69:01. The test is described as above. As to conditions: source organism: Amur virus.
The target of test [10] is HLA-A*02:03. The description is as above. The note with it: source organism: Entamoeba histolytica HM-1:IMSS.
The target in test [11] is HLA-A*03:01. The description is as above.
The target of test [12] is HLA-A*11:01. The description is as above.
In test [13] the target is HLA-A*68:02. The description is as above.
The target of test [14] is HLA-A*02:01. The test can be described thus: IEDB peptide-MHC binding, purified MHC/competitive/fluorescence; filed as Kd, often an IC50 or EC50 that approximates it; ≥ and ≤ were set here for values at or beyond the usual limits of such assays.
In test [15] the target is HLA-A*26:01. Described as above.
The target in test [16] is HLA-A*69:01. Described as above.
Test [17] addresses HLA-B*15:17. The test is described as above.
Test [18] deals with HLA-B*18:01. The test is described as above.
In test [19] the target is HLA-B*27:03. The test is described as above.
For test [20], the target named is HLA-B*39:01. The description is as above.
Test [21] concerns the target HLA-B*46:01. The description is as above.
The target of test [22] is HLA-B*51:01. Described as above.
The target in test [23] is HLA-B*57:01. Described as above.
Test [24] addresses HLA-A*01:01. Put plainly: IEDB peptide-MHC binding, purified MHC/direct/fluorescence; filed as Kd, often an IC50 or EC50 that approximates it; ≥ and ≤ were set here for values at or beyond the usual limits of such assays. The note with it: source organism: Reston ebolavirus - Reston.
The target in test [25] is HLA-A*29:02. The test is described as above.
Test [26] deals with HLA-A*31:01. Described as above. As to conditions: source organism: Reston ebolavirus - Reston.
Test [27] has as its target HLA-B*08:01. Described as above. The note with it: source organism: Reston ebolavirus - Reston.
In test [28] the target is HLA-B*15:01. The test is described as above. The note with it: source organism: Reston ebolavirus - Reston.
Test [29] addresses HLA-B*18:01. Described as above. As to conditions: source organism: Reston ebolavirus - Reston.
Test [30] concerns the target HLA-B*27:05. The test is described as above. As to conditions: source organism: Reston ebolavirus - Reston.
Test [31] addresses HLA-B*44:02. The description is as above. The note with it: source organism: Reston ebolavirus - Reston.
Test [32] deals with HLA-B*46:01. The test is described as above. As to conditions: source organism: Reston ebolavirus - Reston.
Test [33] deals with HLA-B*48:01. Described as above. The note with it: source organism: Reston ebolavirus - Reston.
The target in test [34] is HLA-B*15:01. Put plainly: IEDB peptide-MHC binding, purified MHC/competitive/fluorescence; filed as Kd, often an IC50 or EC50 that approximates it; ≥ and ≤ were set here for values at or beyond the usual limits of such assays.
For test [35], the target named is HLA-A*68:02. Described as above. The note with it: source organism: Salmonella enterica subsp. enterica serovar Typhi.
In test [36] the target is HLA-A*02:16. Put plainly: IEDB peptide-MHC binding, purified MHC/direct/fluorescence; filed as Kd, often an IC50 or EC50 that approximates it; ≥ and ≤ were set here for values at or beyond the usual limits of such assays. The note with it: source organism: Salmonella enterica subsp. enterica serovar Typhimurium str. LT2.
Test [37] deals with HLA-A*24:03. Described as above. As to conditions: source organism: Salmonella enterica subsp. enterica serovar Typhimurium str. LT2.
The mark [38] stands for this setting: source organism: Rickettsia sibirica.
Setting [39] is: source organism: West Nile virus.
The mark [40] stands for this setting: source organism: Entamoeba histolytica HM-1:IMSS.
Where [41] appears, read: source organism: Entamoeba dispar SAW760.
The mark [42] stands for this setting: source organism: Reston ebolavirus - Reston.
Setting [43] is: source organism: Reston ebolavirus - Reston (1989).
Where [44] appears, read: source organism: Salmonella enterica subsp. enterica serovar Typhi.
Where [45] appears, read: source organism: Convict Creek 107 virus.
[46] abbreviates: source organism: Orthohantavirus sinnombreense.
[47] abbreviates: source organism: Salmonella enterica subsp. enterica serovar Typhimurium str. LT2.

On to ASWMALGVY, for which the figures for the Kd in test [1] (setting [38]), in test [2] (source organism: Rickettsia sibirica 246) and in [3] (setting [38]) were 0.0239 µM, ≥ 20 µM and 1.32 µM, respectively.

Turning to GSRAIWFMW, the Kd in [1] (setting [39]) was found to be 0.063 µM; in [2] (setting [39]) it was 0.038 µM.

In test [4] (source organism: Bacillus anthracis str. A0488), RMLHLSQMH yielded a Kd of 0.0258 µM.

Sequence KTWGKNLVF returned a Kd in [1] (source organism: Yellow fever virus 1899/81) of 0.0017 µM.

Turning to TLTRGQNTV, the Kd in test [5] (source organism: Amur virus) is 0.0396 µM; in test [6] (source organism: Amur virus), ≥ 20 µM; in test [7] (source organism: Amur virus), 0.058 µM; in [8] (source organism: Amur virus) it was 0.137 µM; in test [9], ≥ 20 µM.

In [4] (source organism: Influenza A virus (A/Hong Kong/1774/99(H3N2))), CMKTFFGWK gave a Kd of 0.0354 µM.

With STYQFSLMQ, the Kd in test [10], in test [6] (setting [40]), in [7] (setting [40]), in test [8] (setting [40]), in test [11] (setting [40]) and in [12] (setting [40]) was ≥ 20 µM in each case. In addition, the Kd in [13] (setting [40]), in [14] (setting [41]), in [15] (setting [41]), in test [16] (setting [41]), in test [17] (setting [41]) and in test [18] (setting [41]) was ≥ 20 µM each time. In addition, the Kd in test [19] (setting [41]), in [20] (setting [41]), in [21] (setting [41]), in [22] (setting [41]) and in test [23] (setting [41]) was ≥ 20 µM each time.

QLSLRMLSL: the Kd was ≥ 20 µM in [24]; ≥ 20 µM in [11] (setting [42]); ≥ 20 µM in [12] (setting [42]); ≥ 20 µM in [25] (setting [42]); ≥ 20 µM in [26]; 0.859 µM in test [27]. For the same sequence, the Kd in test [28], in test [29], in test [30], in test [31], in test [32] and in test [33] was ≥ 20 µM each time. In addition, the Kd in test [2] (setting [42]), in test [3] (setting [42]), in test [14] (setting [43]), in test [15] (setting [43]), in test [16] (setting [43]) and in [19] (setting [43]) was ≥ 20 µM throughout. For the same sequence, in test [20] (setting [43]), the Kd is ≥ 20 µM.

Take AMAAAGMMY: the results for the Kd in [4] (setting [44]) and in test [34] (setting [44]) were 0.698 µM and 0.332 µM, respectively.

As to WVVDQNGRV, the Kd in test [35] was 0.0179 µM.

As to KLHRYIDSM, the Kd in [5] (source organism: Orthohantavirus andesense) is 0.0342 µM; in [8] (setting [45]) it was ≥ 20 µM; in [11] (setting [45]) it was ≥ 20 µM; in [15] (setting [46]) it was ≥ 20 µM; in test [17] (setting [46]), ≥ 20 µM; in test [18] (setting [46]), ≥ 20 µM. Besides, the Kd in test [19] (setting [46]), in test [20] (setting [46]), in test [21] (setting [46]), in test [22] (setting [46]) and in test [23] (setting [46]) was ≥ 20 µM throughout.

On to FTGEYLLRL, for which the Kd in test [5] (source organism: Salmonella enterica subsp. enterica serovar Typhimurium) was 0.229 µM; in test [7] (setting [47]) it was 1.04 µM; in test [36], ≥ 20 µM; in test [8] (setting [47]), ≥ 20 µM; in test [11] (setting [47]), ≥ 20 µM; in test [37], ≥ 20 µM. The Kd in test [25] (setting [47]), in [13] (setting [47]), in test [15] (source organism: Homo sapiens), in test [16] (source organism: Homo sapiens), in test [34] (source organism: Homo sapiens) and in [18] (source organism: Homo sapiens) was ≥ 20 µM throughout. The Kd in [19] (source organism: Homo sapiens), in [20] (source organism: Homo sapiens), in test [21] (source organism: Homo sapiens), in test [22] (source organism: Homo sapiens) and in [23] (source organism: Homo sapiens) was ≥ 20 µM each time.

As usually defined, the Kd is the free concentration of one partner at which half of the binding sites on the other are occupied at equilibrium, for simple one-to-one binding.

The values above are taken from the Immune Epitope Database (IEDB).
